Reference: US20220242957A1 (MARENGO THERAPEUTICS, published 2022)

Experiments:
[1] = biological target: T1, mouse CCR2 (mouse, UniProt P51683 1-373); assay: flow cytometry on ExpiCHO cells transiently transfected with mouse CCR2; goat anti-mouse Fc biotin and streptavidin-PE
T1 construct: whole, on cells; also called mCCR2
Procedure: (§1) ExpiCHO cells were transiently transfected with mouse CCR2, mouse CSF1R, or both mouse CCR2 and CSF1R, according to the manufacturer's instructions. In brief, the transfections were performed with ExpiCHO cells at a cell density of 5.6-6.3×10⁶ cells/mL and at least 95% viability. For each transfection, 25 μg of DNA was diluted with 1 mL of OptiPro SFM (Gibco 12309050) and filtered using spin-X centrifuge tube filters (Corning 8160). A solution of 920 µL of OptiPro and 80 μL of expifectamine was added to the filtered DNA, incubated for 1 minute at room temperature, and then added to the cells. On day 1 of the transfection, the cells were enhanced using 150 μL of ExpiCHO enhancer.
(§2) On day 2 of the transfection, the cells were washed with PBS containing 1% BSA (Sigma) and used to set 96-well V-bottom plates (Biotix AP-0350-9CVS) with 100,000 cells/well. UniTI-01 was added to the cells in serial dilutions and incubated for 1 hour at 4° C. The plates were washed twice with PBS containing 1% BSA. […] The plates were read on a CytoFLEX S (Beckman Coulter). Data were calculated as the median fluorescence intensity of the PE-positive population vs. the median fluorescence intensity of the PE-negative population. The data was normalized for the percent of total median fluorescence intensity.

[2] = biological target: T2, mouse CCR2 and mouse CSF1R, both expressed on the same ExpiCHO cells (mouse, UniProt P51683 1-373; P09581 20-977); assay: flow cytometry on ExpiCHO cells transiently transfected with both mouse CCR2 and mouse CSF1R; goat anti-mouse Fc biotin and streptavidin-PE
T2 construct: whole, on cells; Two separate membrane proteins on one cell, not a complex; also called CCR2 and CSF1R double positive cells; both mCCR2 and mCSF1R
T2 sequence (P51683 whole entry, one chain of several): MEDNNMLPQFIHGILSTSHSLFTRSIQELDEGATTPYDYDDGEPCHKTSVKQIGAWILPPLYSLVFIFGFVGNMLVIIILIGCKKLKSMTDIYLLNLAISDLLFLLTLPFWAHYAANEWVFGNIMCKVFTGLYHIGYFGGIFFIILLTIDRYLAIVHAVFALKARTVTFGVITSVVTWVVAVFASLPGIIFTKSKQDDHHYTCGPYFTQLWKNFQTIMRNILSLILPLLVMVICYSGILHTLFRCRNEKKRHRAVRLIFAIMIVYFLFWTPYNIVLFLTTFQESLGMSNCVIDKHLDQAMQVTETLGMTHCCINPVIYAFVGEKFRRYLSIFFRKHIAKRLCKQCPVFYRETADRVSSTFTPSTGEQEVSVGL
Procedure: as §1, §2

[3] = biological target: T3, mouse CSF1R (mouse, UniProt P09581 20-977); assay: flow cytometry on ExpiCHO cells transiently transfected with mouse CSF1R; goat anti-mouse Fc biotin and streptavidin-PE
T3 construct: whole, on cells; also called mCSF1R
T3 sequence (looked up): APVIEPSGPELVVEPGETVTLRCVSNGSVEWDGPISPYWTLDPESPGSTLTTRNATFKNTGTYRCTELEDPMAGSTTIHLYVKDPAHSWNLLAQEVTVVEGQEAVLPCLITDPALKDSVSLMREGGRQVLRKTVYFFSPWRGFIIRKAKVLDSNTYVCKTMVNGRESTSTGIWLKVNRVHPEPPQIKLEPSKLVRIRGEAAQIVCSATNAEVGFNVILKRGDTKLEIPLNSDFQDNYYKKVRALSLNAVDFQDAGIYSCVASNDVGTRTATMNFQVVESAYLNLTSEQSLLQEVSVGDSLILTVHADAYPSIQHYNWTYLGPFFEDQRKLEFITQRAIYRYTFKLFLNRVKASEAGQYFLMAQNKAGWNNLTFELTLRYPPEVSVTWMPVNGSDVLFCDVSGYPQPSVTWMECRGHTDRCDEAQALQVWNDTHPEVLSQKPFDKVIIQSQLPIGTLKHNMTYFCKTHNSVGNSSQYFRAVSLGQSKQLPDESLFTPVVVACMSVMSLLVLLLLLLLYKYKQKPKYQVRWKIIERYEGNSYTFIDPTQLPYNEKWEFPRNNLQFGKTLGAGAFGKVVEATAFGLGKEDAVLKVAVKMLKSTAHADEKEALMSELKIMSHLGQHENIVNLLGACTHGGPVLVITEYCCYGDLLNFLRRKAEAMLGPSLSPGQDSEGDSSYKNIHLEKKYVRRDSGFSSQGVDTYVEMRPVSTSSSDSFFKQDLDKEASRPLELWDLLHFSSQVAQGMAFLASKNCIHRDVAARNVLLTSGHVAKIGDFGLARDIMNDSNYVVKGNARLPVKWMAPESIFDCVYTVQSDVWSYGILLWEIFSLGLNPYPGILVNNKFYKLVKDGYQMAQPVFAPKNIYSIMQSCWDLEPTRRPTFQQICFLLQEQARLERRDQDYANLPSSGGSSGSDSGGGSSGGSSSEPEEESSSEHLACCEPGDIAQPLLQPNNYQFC
Procedure: as §1, §2

T1 sequence (P51683 whole entry): as the sequence (P51683 whole entry, one chain of several) above

EC50 [1]: 15 nM | EC50 [2]: 0.4 nM | EC50 [3]: 1 nM
B1: UniTI-01 (multispecific molecule #1, anti-CCR2/anti-CSF1R bispecific antibody) (bispecific antibody)
heavy 1: QVQLQESGPGLVQPSQTLSLTCTVSGFSLTDFSVHWVRQPPGKGLEWMGRIRSEGNTDYNSALKSRLSISRDTSKSQVFLKMNSLQTEDTAIYFCTRGDILGFGYWGQGVMVTVSSAQTTAPSVYPLAPGCGDTTSSTVTLGCLVKGYFPEPVTVTWNSGALSSDVHTFPAVLQSGLYTLTSSVTSSTWPSQTVTCNVAHPASSTKVDKKVERRTIKPCPPCKCPAPNLLGGPSVFIFPPKIKDVLMISLSPIVTCVVVDVSEDDPDVQISWFVNNVEVHTAQTQTHREDYNSTLRVVSALPIQHQDWMSGKEFKCKVNNKDLPAPIERTISKPKGSVRAPQVYVLPPCEEEMTKKQVTLWCMVTDFMPEDIYVEWTNNGKTELNYKNTEPVLDSDGSYFMYSKLRVEKKNWVERNSYSCSVVHEGLHNHHTTKSFSRTPGK
light 1: DIVMTQSPLSVSVTPGESASISCRSSKSLLHFKGITFVYWYLQKPGQSPQLLIFRMSSLASGVPDRFSGSGSETDFTLKISRVEAEDVGTYYCGQLLENPYTFGAGTKLELKRADAAPTVSIFPPSMEQLTSGGATVVCFVNNFYPRDISVKWKIDGSEQRDGVLDSVTDQDSKDSTYSMSSTLSLTKVEYERHNLYTCEVVHKTSSSPVVKSFNRNEC
heavy 2: QVQLQQSGAELVKPGSSVKISCKASGYTFTSNFMHWIKQQPGNGLEWIGWIYPGDGDTEYNQKFNGKATLTADKSSSTAYMQLSSLTSEDSAVYFCAVNYGGYVLDAWGQGASVTVSSAETTAPSVYPLAPGTALKSNSMVTLGCLVKGYFPEPVTVTWNSGALSSGVHTFPAVLQSGLYTLTSSVTVPSSTWSSQAVTCNVAHPASSTKVDKKIVPRECNTIKPCPPCKCPAPNLLGGPSVFIFPPKIKDVLMISLSPIVTCVVVDVSEDDPDVQISWFVNNVEVHTAQTQTHREDYNSTLRVVSALPIQHQDWMSGKEFKCKVNNKDLPAPIERTISKPKGSVRAPQVCVLPPPEEEMTKKQVTLSCAVTDFMPEDIYVEWTNNGKTELNYKNTEPVLDSDGSYFMVSKLRVEKKNWVERNSYSCSVVHEGLHNHHTTKSFSRTPGK
light 2: EIVLTQSPTTMAASPGEKVTITCRASSSTNYMSWYQQKSGASPKPWIYETSKLASGVPDRFSGSGSGTSYSFTISSMETEDAATYYCHQWSSTPLTFGSGTKLEIKRADAAPTVSIFPPSMEQLTSGGATVVCFVNNFYPRDISVKWKIDGSEQRDGVLDSVTDQDSKDSTYSMSSTLSLTKVEYERHNLYTCEVVHKTSSSPVVKSFNRNEC
notes: one arm for each target; also called mUniTI-01
